Data from the Human Domainome abundance scans (Beltran et al. 2025).
± gives the uncertainty stated by the source.

B1: Nuclear receptor subfamily 1 group D member 2, residues 103 to 171; numbered along this chain, Q14995 (parent)
chain: CKVCGDVASGFHYGVHACEGCKGFFRRSIQQNIQYKKCLKNENCSIMRMNRNRCQQCRFKKCLSVGMSR

Variants of: B1
Assay: abundance fitness (aPCA) (normalised: wild type 0, dead -1); higher = more abundant; growth selection in yeast, the domain comes from the species named
Details: Homo sapiens

Which abundance fitness does the source give for CKVCGDVASGFHYGVHACEGCKGFFRRSIQQNIQYKKCLKNHNCSIMRMNRNRCQQCRFKKCLSVGMSR [E42H] here?
The abundance fitness was -0.231 ± 0.19.

With CKVCGDVASGFHYGVHACEGCKGFFRRSIQQNIQYKKCLKNMNCSIMRMNRNRCQQCRFKKCLSVGMSR [E42M] as the variant, how does the abundance fitness read?
Its abundance fitness is -0.008 ± 0.15.

With CKVCGDVASGFHYGVHACEGCKGFFRRSIQQNIQYKKCLKNFNCSIMRMNRNRCQQCRFKKCLSVGMSR [E42F] as the variant, how does the abundance fitness read?
The abundance fitness was -0.809 ± 0.29.

Which abundance fitness does the source give for CKVCGDVASGFHYGVHACEGCKGFFRRSIQQNIQYKKCLKNSNCSIMRMNRNRCQQCRFKKCLSVGMSR [E42S] here?
Its abundance fitness is -0.172 ± 0.076.

Which abundance fitness does the source give for CKVCGDVASGFHYGVHACEGCKGFFRRSIQQNIQYKKCLKNQNCSIMRMNRNRCQQCRFKKCLSVGMSR [E42Q] here?
The abundance fitness was -0.23 ± 0.19.

With CKVCGDVASGFHYGVHACEGCKGFFRRSIQQNIQYKKCLKNGNCSIMRMNRNRCQQCRFKKCLSVGMSR [E42G] as the variant, how does the abundance fitness read?
The abundance fitness was 0.13 ± 0.063.

With CKVCGDVASGFHYGVHACEGCKGFFRRSIQQNIQYKKVLKNENCSIMRMNRNRCQQCRFKKCLSVGMSR [C38V] as the variant, how does the abundance fitness read?
The abundance fitness was -0.551 ± 0.11.

Which abundance fitness does the source give for CKVCGDVASGFHYGVHACEGCKGFFRRSIQQNIQYKKPLKNENCSIMRMNRNRCQQCRFKKCLSVGMSR [C38P] here?
Its abundance fitness is -0.682 ± 0.35.

For CKVCGDVASGFHYGVHACEGCKGFFRRSIQQNIQYKKGLKNENCSIMRMNRNRCQQCRFKKCLSVGMSR [C38G], which abundance fitness is on record?
The abundance fitness was -0.836 ± 0.14.

With CKVCGDVASGFHYGVHACEGCKGFFRRSIQQNIQYKKRLKNENCSIMRMNRNRCQQCRFKKCLSVGMSR [C38R] as the variant, how does the abundance fitness read?
Its abundance fitness is -0.842 ± 0.14.

Which abundance fitness does the source give for CKVCGDVASGFHYGVHACEGCKGFFRRSIQQNIQYKKALKNENCSIMRMNRNRCQQCRFKKCLSVGMSR [C38A] here?
The abundance fitness was -0.74 ± 0.26.

Which abundance fitness does the source give for CKVCGDVASGFHYGVHACEGCKGFFRRSIQQNIQYKKFLKNENCSIMRMNRNRCQQCRFKKCLSVGMSR [C38F] here?
The abundance fitness was -0.864 ± 0.28.

For CKVCGDVASGFHYGVHACEGCKGFFRRSIQQNIQYKKYLKNENCSIMRMNRNRCQQCRFKKCLSVGMSR [C38Y], which abundance fitness is on record?
The abundance fitness was -0.785 ± 0.44.

With CKVCGDVASGFHYGVHACEGCKGFFRRSIQQNIQYKKSLKNENCSIMRMNRNRCQQCRFKKCLSVGMSR [C38S] as the variant, how does the abundance fitness read?
The abundance fitness was -0.579 ± 0.075.

For CKVCGDVASGFHYGVHACEGCKGFFRRSIQQNIQYKKWLKNENCSIMRMNRNRCQQCRFKKCLSVGMSR [C38W], which abundance fitness is on record?
Its abundance fitness is -0.521 ± 0.13.

With CKVCGDVASGFHYGVHACEGCKGFFRRSIQQNIQYKKDLKNENCSIMRMNRNRCQQCRFKKCLSVGMSR [C38D] as the variant, how does the abundance fitness read?
Its abundance fitness is -0.894 ± 0.31.

Which abundance fitness does the source give for CKVCGDVASGFHYGVHACEGCKGFFRRSIQQNIQYKKELKNENCSIMRMNRNRCQQCRFKKCLSVGMSR [C38E] here?
The abundance fitness was -0.857 ± 0.27.

With CKVCGDVASGFHYGVHACEGCKGFFRRSIQQNIQYKKLLKNENCSIMRMNRNRCQQCRFKKCLSVGMSR [C38L] as the variant, how does the abundance fitness read?
The abundance fitness was -1.01 ± 0.22.

Which abundance fitness does the source give for CKVCGDVASGFHYGVHACEGCKGFFRRSIQQNIQYKKQLKNENCSIMRMNRNRCQQCRFKKCLSVGMSR [C38Q] here?
Its abundance fitness is -0.803 ± 0.45.

With CKVCGDVASGFHYGVHACEGCKGFFRRSIQQNIQYKKTLKNENCSIMRMNRNRCQQCRFKKCLSVGMSR [C38T] as the variant, how does the abundance fitness read?
Its abundance fitness is -0.768 ± 0.26.

For CKVCGDVASGFHYGVHACEGCKGFFRRSIQQNIQYKKCLYNENCSIMRMNRNRCQQCRFKKCLSVGMSR [K40Y], which abundance fitness is on record?
Its abundance fitness is 0.26 ± 0.12.

Which abundance fitness does the source give for CKVCGDVASGFHYGVHACEGCKGFFRRSIQQNIQYKKCLGNENCSIMRMNRNRCQQCRFKKCLSVGMSR [K40G] here?
The abundance fitness was 0.202 ± 0.042.

Which abundance fitness does the source give for CKVCGDVASGFHYGVHACEGCKGFFRRSIQQNIQYKKCLQNENCSIMRMNRNRCQQCRFKKCLSVGMSR [K40Q] here?
Its abundance fitness is 0.206 ± 0.081.

With CKVCGDVASGFHYGVHACEGCKGFFRRSIQQNIQYKKCLLNENCSIMRMNRNRCQQCRFKKCLSVGMSR [K40L] as the variant, how does the abundance fitness read?
The abundance fitness was -0.042 ± 0.051.

Which abundance fitness does the source give for CKVCGDVASGFHYGVHACEGCKGFFRRSIQQNIQYKKCLVNENCSIMRMNRNRCQQCRFKKCLSVGMSR [K40V] here?
The abundance fitness was -0.273 ± 0.057.

Which abundance fitness does the source give for CKVCGDVASGFHYGVHACEGCKGFFRRSIQQNIQYKKCLPNENCSIMRMNRNRCQQCRFKKCLSVGMSR [K40P] here?
Its abundance fitness is -0.532 ± 0.13.

Which abundance fitness does the source give for CKVCGDVASGFHYGVHACEGCKGFFRRSIQQNIQYKKCLNNENCSIMRMNRNRCQQCRFKKCLSVGMSR [K40N] here?
The abundance fitness was 0.246 ± 0.32.

Which abundance fitness does the source give for CKVCGDVASGFHYGVHACEGCKGFFRRSIQQNIQYKKCLTNENCSIMRMNRNRCQQCRFKKCLSVGMSR [K40T] here?
The abundance fitness was 0.1 ± 0.079.

For CKVCGDVASGFHYGVHACEGCKGFFRRSIQQNIQYKKCLSNENCSIMRMNRNRCQQCRFKKCLSVGMSR [K40S], which abundance fitness is on record?
The abundance fitness was 0.092 ± 0.056.

For CKVCGDVASGFHYGVHACEGCKGFFRRSIQQNIQYKKCLDNENCSIMRMNRNRCQQCRFKKCLSVGMSR [K40D], which abundance fitness is on record?
The abundance fitness was 0.115 ± 0.09.

For CKVCGDVASGFHYGVHACEGCKGFFRRSIQQNIQYKKCLFNENCSIMRMNRNRCQQCRFKKCLSVGMSR [K40F], which abundance fitness is on record?
The abundance fitness was 0.09 ± 0.11.

With CKVCGDVASGFHYGVHACEGCKGFFRRSIQQNIQYKKCLMNENCSIMRMNRNRCQQCRFKKCLSVGMSR [K40M] as the variant, how does the abundance fitness read?
Its abundance fitness is -0.059 ± 0.11.

Which abundance fitness does the source give for CKVCGDVASGFHYGVHACEGCKGFFRRSIQQNIQYKKCLANENCSIMRMNRNRCQQCRFKKCLSVGMSR [K40A] here?
Its abundance fitness is 0.106 ± 0.056.

Which abundance fitness does the source give for CKVCGDVASGFHYGVHACEGCKGFFRRSIQQNIQYKKCLWNENCSIMRMNRNRCQQCRFKKCLSVGMSR [K40W] here?
Its abundance fitness is 0.227 ± 0.047.

Which abundance fitness does the source give for CKVCGDVASGFHYGVHACEGCKGFFRRSIQQNIQYKKCLHNENCSIMRMNRNRCQQCRFKKCLSVGMSR [K40H] here?
Its abundance fitness is -0.12 ± 0.13.

Which abundance fitness does the source give for CKVCGDVASGFHYGVHACEGCKGFFRRSIQQNIQYKKCLCNENCSIMRMNRNRCQQCRFKKCLSVGMSR [K40C] here?
Its abundance fitness is -0.615 ± 0.19.

With CKVCGDVASGFHYGVHACEGCKGFFRRSIQQNIQYKKCLRNENCSIMRMNRNRCQQCRFKKCLSVGMSR [K40R] as the variant, how does the abundance fitness read?
Its abundance fitness is -0.029 ± 0.048.

For CKVCGDVASGFHYGVHACEGCKGFFRRSIQQNIQYKYCLKNENCSIMRMNRNRCQQCRFKKCLSVGMSR [K37Y], which abundance fitness is on record?
The abundance fitness was -0.631 ± 0.35.

Which abundance fitness does the source give for CKVCGDVASGFHYGVHACEGCKGFFRRSIQQNIQYKWCLKNENCSIMRMNRNRCQQCRFKKCLSVGMSR [K37W] here?
The abundance fitness was -0.225 ± 0.17.
